Measurements: patent US20180030151A1 (MOGAM INSTITUTE FOR BIOMEDICAL RESEARCH, published 2018)
Like-named read-outs stand apart in the source and are kept apart here.

Legend:
[1] = molecular target: T1, recombinant human TFPI (tissue factor pathway inhibitor) (human, UniProt P10646 29-304); test: cell-based or functional assay
[2] = molecular target: T1, recombinant human TFPI (tissue factor …); test: cell-based or functional assay; remark: listed apart in the source
[3] = molecular target: T1, recombinant human TFPI (tissue factor …); test: cell-based or functional assay; remark: listed apart in the source
[4] = molecular target: T1, recombinant human TFPI (tissue factor …); test: SPR, Biacore T-200; TFPI immobilised on CM5 chip, IgG as analyte
Protocol: 10 mM of glycine-HCl (pH 1.5) was run at a flow rate of 30 μL/min for 30 seconds, thereby inducing the dissociation of the antibody associated with the TFPI. The affinity in terms of kinetic rate constants (Kₒₙ and Koff) and equilibrium dissociation constant

[5] = molecular target: T1, recombinant human TFPI (tissue factor …); test: cell-based or functional assay; remark: listed apart in the source
[6] = molecular target: T1, recombinant human TFPI (tissue factor …); test: cell-based or functional assay; remark: listed apart in the source
[7] = molecular target: T1, recombinant human TFPI (tissue factor …); test: cell-based or functional assay; remark: listed apart in the source
[8] = molecular target: T1, recombinant human TFPI (tissue factor …); test: cell-based or functional assay; remark: listed apart in the source
[9] = molecular target: T1, recombinant human TFPI (tissue factor …); test: cell-based or functional assay; remark: listed apart in the source
[10] = molecular target: T1, recombinant human TFPI (tissue factor …); test: cell-based or functional assay; remark: listed apart in the source
[11] = molecular target: T1, recombinant human TFPI (tissue factor …); test: cell-based or functional assay; remark: listed apart in the source
[12] = molecular target: T1, recombinant human TFPI (tissue factor …); test: cell-based or functional assay; remark: listed apart in the source
[13] = molecular target: T1, recombinant human TFPI (tissue factor …); test: cell-based or functional assay; remark: listed apart in the source
[14] = molecular target: T1, recombinant human TFPI (tissue factor …); test: cell-based or functional assay; remark: listed apart in the source
[15] = molecular target: T1, recombinant human TFPI (tissue factor …); test: cell-based or functional assay; remark: listed apart in the source
[16] = molecular target: T1, recombinant human TFPI (tissue factor …); test: cell-based or functional assay; remark: listed apart in the source

B1: clone T417 (antibody, V domains shown)
VH: EVHLVESGGDLVKPGGSLKLSCAASGFTFSSYAMSWVRQTPDKRLEWVATITTGGSYTYYPDSVKGRFTISRDNAKNTLYLQMSSLKSEDTAMYYCARQDGNFLMDYWGQGTTVTVSS
VL: not shown
notes: also called T417 chimeric antibody
- FXa assay % of FXa alone, 2.5 nM Ab, 10 nM TFPI [1]: 5.5%
- FXa assay % of FXa alone, 5 nM Ab, 10 nM TFPI [1]: 7.1%
- FXa assay % of FXa alone, 10 nM Ab, 10 nM TFPI [1]: 28.8%
- FXa assay % of FXa alone, 20 nM Ab, 10 nM TFPI [1]: 54.5%
- FXa assay OD, 2.5 nM Ab, 10 nM TFPI [1]: 0.048
- FXa assay OD, 5 nM Ab, 10 nM TFPI [1]: 0.062
- FXa assay OD, 10 nM Ab, 10 nM TFPI [1]: 0.251
- FXa assay OD, 20 nM Ab, 10 nM TFPI [1]: 0.474
- TF/FVIIa/FXa assay % of 0 nM TFPI, 12.5 nM Ab, 50 nM TFPI [2]: 21.2%
- TF/FVIIa/FXa assay % of 0 nM TFPI, 50 nM Ab, 50 nM TFPI [2]: 115%
- TF/FVIIa/FXa assay % of 0 nM TFPI, 100 nM Ab, 50 nM TFPI [2]: 113%
- TF/FVIIa/FXa assay OD, 12.5 nM Ab, 50 nM TFPI [2]: 0.17 OD
- TF/FVIIa/FXa assay OD, 25 nM Ab, 50 nM TFPI [2]: 0.696 OD
- TF/FVIIa/FXa assay OD, 50 nM Ab, 50 nM TFPI [2]: 0.924 OD
- TF/FVIIa/FXa assay OD, 100 nM Ab, 50 nM TFPI [2]: 0.907 OD
- FXa assay % of FXa alone, 2.5 nM Ab, 10 nM TFPI [3]: 9.8%
- FXa assay % of FXa alone, 5 nM Ab, 10 nM TFPI [3]: 52.1%
- FXa assay % of FXa alone, 10 nM Ab, 10 nM TFPI [3]: 69.4%
- FXa assay % of FXa alone, 20 nM Ab, 10 nM TFPI [3]: 81.8%
- FXa assay OD, 2.5 nM Ab, 10 nM TFPI [3]: 0.079
- FXa assay OD, 5 nM Ab, 10 nM TFPI [3]: 0.42
- FXa assay OD, 10 nM Ab, 10 nM TFPI [3]: 0.56
- FXa assay OD, 20 nM Ab, 10 nM TFPI [3]: 0.66
- Kd [4]: 6.7 pM
- % of Normalized, TF/FVIIa/FX complex assay (FX 5 nM), Ab 1.56 nM [5]: 5.5%
- % of Normalized, TF/FVIIa/FX complex assay (FX 5 nM), Ab 3.13 nM [5]: 6%
- % of Normalized, TF/FVIIa/FX complex assay (FX 5 nM), Ab 6.25 nM [5]: 6.2%
- % of Normalized, TF/FVIIa/FX complex assay (FX 5 nM), Ab 12.5 nM [5]: 8.9%
- % of Normalized, TF/FVIIa/FX complex assay (FX 5 nM), Ab 25 nM [5]: 19%
- % of Normalized, TF/FVIIa/FX complex assay (FX 5 nM), Ab 50 nM [5]: 62.9%
- % of Normalized, TF/FVIIa/FX complex assay (FX 5 nM), Ab 100 nM [5]: 92%
- A405, TF/FVIIa/FX complex assay (FX 5 nM), Ab 1.56 nM [6]: 0.045
- A405, TF/FVIIa/FX complex assay (FX 5 nM), Ab 3.13 nM [6]: 0.049
- A405, TF/FVIIa/FX complex assay (FX 5 nM), Ab 6.25 nM [6]: 0.05
- A405, TF/FVIIa/FX complex assay (FX 5 nM), Ab 12.5 nM [6]: 0.072
- A405, TF/FVIIa/FX complex assay (FX 5 nM), Ab 25 nM [6]: 0.154
- A405, TF/FVIIa/FX complex assay (FX 5 nM), Ab 50 nM [6]: 0.509
- A405, TF/FVIIa/FX complex assay (FX 5 nM), Ab 100 nM [6]: 0.745
- A405, TF/FVIIa/FX complex assay, Ab 1.56 nM [7]: 0.145
- A405, TF/FVIIa/FX complex assay, Ab 3.13 nM [7]: 0.16
- A405, TF/FVIIa/FX complex assay, Ab 6.25 nM [7]: 0.186
- A405, TF/FVIIa/FX complex assay, Ab 12.5 nM [7]: 0.251
- A405, TF/FVIIa/FX complex assay, Ab 25 nM [7]: 0.88
- A405, TF/FVIIa/FX complex assay, Ab 50 nM [7]: 0.908
- A405, TF/FVIIa/FX complex assay, Ab 100 nM [7]: 0.945
- FXa assay % of FXa alone, 2.5 nM Ab, 10 nM TFPI [8]: 7.7%
- FXa assay % of FXa alone, 5 nM Ab, 10 nM TFPI [8]: 29.9%
- FXa assay % of FXa alone, 10 nM Ab, 10 nM TFPI [8]: 56.8%
- FXa assay % of FXa alone, 20 nM Ab, 10 nM TFPI [8]: 75.6%
- FXa assay OD, 2.5 nM Ab, 10 nM TFPI [8]: 0.0625
- FXa assay OD, 5 nM Ab, 10 nM TFPI [8]: 0.242
- FXa assay OD, 10 nM Ab, 10 nM TFPI [8]: 0.461
- FXa assay OD, 20 nM Ab, 10 nM TFPI [8]: 0.614
- FXa assay % of FXa alone, 2.5 nM Ab, 10 nM TFPI [9]: 5.4%
- FXa assay % of FXa alone, 5 nM Ab, 10 nM TFPI [9]: 8%
- FXa assay % of FXa alone, 10 nM Ab, 10 nM TFPI [9]: 30.7%
- FXa assay % of FXa alone, 20 nM Ab, 10 nM TFPI [9]: 58.5%
- FXa assay OD, 2.5 nM Ab, 10 nM TFPI [9]: 0.041
- FXa assay OD, 5 nM Ab, 10 nM TFPI [9]: 0.061
- FXa assay OD, 10 nM Ab, 10 nM TFPI [9]: 0.234
- FXa assay OD, 20 nM Ab, 10 nM TFPI [9]: 0.446
- A405, TF/FVIIa/FX complex assay, Ab 1.56 nM [10]: 0.16
- A405, TF/FVIIa/FX complex assay, Ab 3.13 nM [10]: 0.158
- A405, TF/FVIIa/FX complex assay, Ab 6.25 nM [10]: 0.183
- A405, TF/FVIIa/FX complex assay, Ab 12.5 nM [10]: 0.253
- A405, TF/FVIIa/FX complex assay, Ab 25 nM [10]: 0.894
- A405, TF/FVIIa/FX complex assay, Ab 50 nM [10]: 0.938
- A405, TF/FVIIa/FX complex assay, Ab 100 nM [10]: 0.931
- % of Normalized, TF/FVIIa/FX complex assay, Ab 1.56 nM [11]: 17.5%
- % of Normalized, TF/FVIIa/FX complex assay, Ab 3.13 nM [11]: 17.2%
- % of Normalized, TF/FVIIa/FX complex assay, Ab 6.25 nM [11]: 20%
- % of Normalized, TF/FVIIa/FX complex assay, Ab 12.5 nM [11]: 27.7%
- % of Normalized, TF/FVIIa/FX complex assay, Ab 25 nM [11]: 97.7%
- % of Normalized, TF/FVIIa/FX complex assay, Ab 50 nM [11]: 102%
- % of Normalized, TF/FVIIa/FX complex assay, Ab 100 nM [11]: 102%
- A405, TF/FVIIa/FX complex assay, Ab 1.56 nM [12]: 0.045
- A405, TF/FVIIa/FX complex assay, Ab 3.13 nM [12]: 0.047
- A405, TF/FVIIa/FX complex assay, Ab 6.25 nM [12]: 0.05
- A405, TF/FVIIa/FX complex assay, Ab 12.5 nM [12]: 0.074
- A405, TF/FVIIa/FX complex assay, Ab 25 nM [12]: 0.273
- A405, TF/FVIIa/FX complex assay, Ab 50 nM [12]: 0.6
- A405, TF/FVIIa/FX complex assay, Ab 100 nM [12]: 0.81
- % of Normalized, TF/FVIIa/FX complex assay, Ab 1.56 nM [13]: 5.2%
- % of Normalized, TF/FVIIa/FX complex assay, Ab 3.13 nM [13]: 5.5%
- % of Normalized, TF/FVIIa/FX complex assay, Ab 6.25 nM [13]: 5.8%
- % of Normalized, TF/FVIIa/FX complex assay, Ab 12.5 nM [13]: 8.7%
- % of Normalized, TF/FVIIa/FX complex assay, Ab 25 nM [13]: 32.1%
- % of Normalized, TF/FVIIa/FX complex assay, Ab 50 nM [13]: 70.7%
- % of Normalized, TF/FVIIa/FX complex assay, Ab 100 nM [13]: 95.5%
- FXa assay % of FXa alone, 2.5 nM Ab, 10 nM TFPI [14]: 6.9%
- FXa assay % of FXa alone, 5 nM Ab, 10 nM TFPI [14]: 20%
- FXa assay % of FXa alone, 10 nM Ab, 10 nM TFPI [14]: 45.4%
- FXa assay % of FXa alone, 20 nM Ab, 10 nM TFPI [14]: 72.9%
- FXa assay OD, 2.5 nM Ab, 10 nM TFPI [14]: 0.057
- FXa assay OD, 5 nM Ab, 10 nM TFPI [14]: 0.165
- FXa assay OD, 10 nM Ab, 10 nM TFPI [14]: 0.375
- FXa assay OD, 20 nM Ab, 10 nM TFPI [14]: 0.603
- FXa assay % of FXa alone, 2.5 nM Ab, 10 nM TFPI [15]: 9.2%
- FXa assay % of FXa alone, 5 nM Ab, 10 nM TFPI [15]: 43.8%
- FXa assay % of FXa alone, 10 nM Ab, 10 nM TFPI [15]: 75.2%
- FXa assay % of FXa alone, 20 nM Ab, 10 nM TFPI [15]: 88.6%
- FXa assay OD, 2.5 nM Ab, 10 nM TFPI [15]: 0.071
- FXa assay OD, 5 nM Ab, 10 nM TFPI [15]: 0.337
- FXa assay OD, 10 nM Ab, 10 nM TFPI [15]: 0.579
- FXa assay OD, 20 nM Ab, 10 nM TFPI [15]: 0.682
- FXa assay % of FXa alone, 2.5 nM Ab, 10 nM TFPI [16]: 17.6%
- FXa assay % of FXa alone, 5 nM Ab, 10 nM TFPI [16]: 75.9%
- FXa assay % of FXa alone, 10 nM Ab, 10 nM TFPI [16]: 85.2%
- FXa assay % of FXa alone, 20 nM Ab, 10 nM TFPI [16]: 93.3%
- FXa assay OD, 2.5 nM Ab, 10 nM TFPI [16]: 0.127
- FXa assay OD, 5 nM Ab, 10 nM TFPI [16]: 0.546
- FXa assay OD, 10 nM Ab, 10 nM TFPI [16]: 0.613
- FXa assay OD, 20 nM Ab, 10 nM TFPI [16]: 0.67
